Measurements reported in US20120308570A1, “METHODS FOR TREATING DISEASES” (priority 2009, published 2012).

T1: SSB-2ΔSB (recombinant murine SSB-2 SPRY domain, residues 12-224) (mouse, UniProt O88838 12-224)
T1 construct: 226 residues in total; expressed as GST fusion in E. coli, GST cleaved off with thrombin; 15N-labelled for NMR; coupled to NHS-Sepharose for pull-downs; also called SPSB2
T1 sequence: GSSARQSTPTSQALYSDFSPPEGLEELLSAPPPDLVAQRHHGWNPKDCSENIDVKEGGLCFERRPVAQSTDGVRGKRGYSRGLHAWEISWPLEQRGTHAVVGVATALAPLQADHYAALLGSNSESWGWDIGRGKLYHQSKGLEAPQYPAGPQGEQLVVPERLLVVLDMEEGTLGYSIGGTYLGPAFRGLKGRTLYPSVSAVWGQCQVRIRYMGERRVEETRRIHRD

T2: full-length iNOS protein (endogenous, from LPS/IFNγ-treated mouse bone marrow-derived macrophages) (mouse, UniProt P29477 1-1144)
T2 construct: Not purified: present in macrophage lysates; Detected by Western blot with anti-iNOS antibody; also called NOS2; inducible nitric oxide synthase
T2 sequence: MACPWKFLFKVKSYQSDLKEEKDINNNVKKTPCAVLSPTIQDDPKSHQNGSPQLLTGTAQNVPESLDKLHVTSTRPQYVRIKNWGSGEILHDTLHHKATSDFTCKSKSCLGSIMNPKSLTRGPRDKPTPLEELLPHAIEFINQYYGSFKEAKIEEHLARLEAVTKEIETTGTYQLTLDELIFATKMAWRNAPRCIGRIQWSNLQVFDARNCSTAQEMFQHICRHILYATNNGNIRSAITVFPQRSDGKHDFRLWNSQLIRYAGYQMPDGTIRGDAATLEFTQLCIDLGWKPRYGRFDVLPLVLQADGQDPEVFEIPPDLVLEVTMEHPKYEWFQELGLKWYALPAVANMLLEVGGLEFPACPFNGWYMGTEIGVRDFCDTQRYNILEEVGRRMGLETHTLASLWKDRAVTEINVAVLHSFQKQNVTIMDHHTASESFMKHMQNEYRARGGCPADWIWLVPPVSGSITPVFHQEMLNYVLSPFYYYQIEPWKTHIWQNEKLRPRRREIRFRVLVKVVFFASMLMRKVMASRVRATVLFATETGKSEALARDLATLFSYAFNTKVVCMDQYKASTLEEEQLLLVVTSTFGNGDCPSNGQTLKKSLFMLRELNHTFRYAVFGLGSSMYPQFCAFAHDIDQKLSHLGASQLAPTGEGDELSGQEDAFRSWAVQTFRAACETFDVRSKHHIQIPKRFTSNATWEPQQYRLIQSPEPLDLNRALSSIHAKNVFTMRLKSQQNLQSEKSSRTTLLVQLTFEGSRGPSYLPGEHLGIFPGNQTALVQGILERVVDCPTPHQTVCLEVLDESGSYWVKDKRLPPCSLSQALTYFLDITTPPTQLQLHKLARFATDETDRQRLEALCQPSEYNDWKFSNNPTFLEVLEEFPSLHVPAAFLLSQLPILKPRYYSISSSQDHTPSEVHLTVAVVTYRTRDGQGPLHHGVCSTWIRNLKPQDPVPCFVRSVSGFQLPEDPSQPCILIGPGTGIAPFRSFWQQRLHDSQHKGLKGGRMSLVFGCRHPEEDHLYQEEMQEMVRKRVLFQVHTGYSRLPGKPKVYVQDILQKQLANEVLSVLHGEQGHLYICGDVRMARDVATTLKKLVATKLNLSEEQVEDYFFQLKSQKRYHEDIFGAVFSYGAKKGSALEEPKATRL


The binders below were run against T1, SSB-2ΔSB (recombinant murine SSB-2 SPRY …) (assay: ITC, 25 C, peptide injected into SSB-2ΔSB).
Description: FIG. 3. Typical ITC raw data and titration curves for SSB-2 and iNOS peptide interactions. Titration curves were fitted using the “One Set of Sites” model in MicroCal Origin.
Wild-type and mutant iNOS peptides (Table 2), corresponding to Lys19-Thr31 of mouse iNOS, were synthesized by GL Biochem (Shanghai) Ltd. These peptides were N-terminal acetylated and C-terminal amidated. All ITC measurements were carried out at 25° C. using a Microcal omega VP-ITC (Microcal Inc., Northampton, Mass.). SSB-2ΔSB was dialysed against buffer (100 mM TrisHCl, 150 mM NaCl, pH 8.0), and wild-type and mutant iNOS N-terminal peptides were prepared in the same buffer from 5 mM stocks. Solutions of 5 to 10 μM SSB-2ΔSB in the cell were titrated by injection of a total of 290 μL of 50-200 μM of iNOS peptides. Data analysis was performed using the evaluation software, MicroCal Origin version 5.0. All curves were fitted using the nonlinear least-squares fitter and the “One Set of Sites” model.

Binder	Kd [nM]
Ac-KEAKDINNNVKKT-NH2 [iNOS N-terminal peptide II, Ac-KEAKDINNNVKKT-NH2]	14
Ac-KEEKDINANVKKT-NH2 [iNOS N-terminal peptide IX, Ac-KEEKDINANVKKT-NH2]	826
Ac-KEEADINNNVKKT-NH2 [iNOS N-terminal peptide III, Ac-KEEADINNNVKKT-NH2]	127
Ac-KEEKAINNNVKKT-NH2 [iNOS N-terminal peptide V, Ac-KEEKAINNNVKKT-NH2]	21600
Ac-KEEKDIANNVKKT-NH2 [iNOS N-terminal peptide VII, Ac-KEEKDIANNVKKT-NH2]	17200
Ac-KEEKDINNNAKAT-NH2 [iNOS N-terminal peptide XIV, Ac-KEEKDINNNAKAT-NH2]	180
Ac-KEAADINNNVKKT-NH2 [iNOS N-terminal peptide IV, Ac-KEAADINNNVKKT-NH2]	65.4
Ac-KEEKDIQNNVKKT-NH2 [iNOS N-terminal peptide VIII, Ac-KEEKDIQNNVKKT-NH2]	40500
Ac-KEEKDANNNVKKT-NH2 [iNOS N-terminal peptide VI, Ac-KEEKDANNNVKKT-NH2]	23.5

What follows are binders tested against T2, full-length iNOS protein (endogenous, …) (assay: anti-Flag co-immunoprecipitation, anti-iNOS Western blot).
Source text: FIG. 6. Interaction between iNOS and SSB-1, -2, and -4 and SSB-2 residues affecting 10 iNOS binding. (A) iNOS interacts preferentially with SSB-2 and SSB-4. 293T cells were transiently transfected with vector alone or cDNA encoding either Flag-tagged SSB-1, SSB-2, SSB-3 or SSB-4. Cells were lysed, and mixed with BMDM lysates from cells induced to express iNOS. Flag-tagged proteins were immunoprecipitated using anti-Flag antibodies (M2-beads) and separated by SDSPAGE. Co-immunoprecipitation of iNOS was detected by Western blot with anti-iNOS antibodies (upper panel). Membranes were stripped and reprobed with rat anti-Flag antibodies (middle panel). Comparative expression of Flag-tagged proteins in 293T lysates is shown by Western blot (lower panel). (B) SSB-2 residues affecting iNOS binding. Residues in the SSB-2 SPRY domain were mutated to Ala or Phe (for Y120) based on SSB-2 structure and sequence conservation. 293T cells 20 were transiently transfected with cDNA encoding Flag-tagged wild-type or mutant SSB-2. Cells were lysed, and mixed with BMDM lysates from cells induced to express iNOS. Flag-tagged proteins were immunoprecipitated using anti-Flag antibodies and separated by SDS-PAGE. Coimmunoprecipitation of iNOS was detected by Western blot with anti-iNOS antibodies.

Binder	binding result
Flag-tagged SSB-2 mutant R100/G101 to alanine (other) DYKDDDDKMGQTALARGSSSTPTSQALYSDFSPPEGLEELLSAPPPDLVAQRHHGWNPKDCSENIDVKEGGLCFERRPVAQSTDGVRGKRGYSRGLHAWEISWPLEQAATHAVVGVATALAPLQADHYAALLGSNSESWGWDIGRGKLYHQSKGLEAPQYPAGPQGEQLVVPERLLVVLDMEEGTLGYSIGGTYLGPAFRGLKGRTLYPSVSAVWGQCQVRIRYMGERRVEEPQSLLHLSRLCVRHALGDTRLGQISTLPLPPAMKRYLLYK	no binding
Flag-tagged SSB-2 mutant V206 to alanine (other) DYKDDDDKMGQTALARGSSSTPTSQALYSDFSPPEGLEELLSAPPPDLVAQRHHGWNPKDCSENIDVKEGGLCFERRPVAQSTDGVRGKRGYSRGLHAWEISWPLEQRGTHAVVGVATALAPLQADHYAALLGSNSESWGWDIGRGKLYHQSKGLEAPQYPAGPQGEQLVVPERLLVVLDMEEGTLGYSIGGTYLGPAFRGLKGRTLYPSVSAAWGQCQVRIRYMGERRVEEPQSLLHLSRLCVRHALGDTRLGQISTLPLPPAMKRYLLYK	no binding
Flag-tagged SSB-2 mutant Y120 to alanine (other) DYKDDDDKMGQTALARGSSSTPTSQALYSDFSPPEGLEELLSAPPPDLVAQRHHGWNPKDCSENIDVKEGGLCFERRPVAQSTDGVRGKRGYSRGLHAWEISWPLEQRGTHAVVGVATALAPLQADHAAALLGSNSESWGWDIGRGKLYHQSKGLEAPQYPAGPQGEQLVVPERLLVVLDMEEGTLGYSIGGTYLGPAFRGLKGRTLYPSVSAVWGQCQVRIRYMGERRVEEPQSLLHLSRLCVRHALGDTRLGQISTLPLPPAMKRYLLYK	no binding

The binders below were run against T2, full-length iNOS protein (endogenous, …) (assay: anti-Flag immunoprecipitation from transgenic BMDM, anti-iNOS re-blot).
Description: Cells were incubated with IFNγ and LPS as described, and lysed in KALB lysis buffer (Nicholson et al., 1995) containing protease inhibitors (Complete Cocktail tablets, Roche), 1 mM phenylmethylsulphonyl fluoride, 1 mM Na₃VO₄ and 1 mM NaF. Proteins were immunoprecipitated using anti-Flag antibody conjugated to Sepharose (M2; EASTMAN KODAK). Proteins were separated by sodium dodecyl sulphatepolyacrylamide gel electrophoresis (SDS-PAGE) under reducing conditions and electrophoretically transferred to Biotrace PVDF membranes (Pall Corp. Ann Arbor, Mich.). Membranes were blocked overnight in 10% w/v skim milk and incubated with primary antibody for 2 h. Antibody binding was visualized with either peroxidase-conjugated goat anti-rat immunoglobulin (Southern Biotech) or peroxidase-conjugated sheep anti-rabbit immunoglobulin (Chemicon, Melbourne, Australia), and the enhanced chemiluminescence (ECL) system (Amersham, Little Chalfont, Buckinghamshire, UK). To re-blot, the membrane was first stripped of antibodies in 0.1 M glycine, pH 2.9.
As genetic deletion of SSB-2 appeared to result in elevation of iNOS levels, it was tested whether artificially increasing SSB levels could correspondingly down-regulate iNOS expression. BMDM were generated from mice expressing either a Flag-tagged Ssb-1 or Ssb-2 transgene under a constitutive promoter (Ssb-1^{T/+}, Ssb-2^{T/+}) and from wild-type littermate control mice. […] Macrophage expression of the SSB transgenes was confirmed by anti-FLAG immunoprecipitation and Western blot (FIGS. 9C and 10C, top panels).

Binder	binding result
Flag-tagged SSB-1ΔSB transgene product (a.a. 2-233, without the SOCS box), in BMDM of Ssb-1ΔSB T/+ mice (other, also called SOCS box-deleted SSB-1) DYKDDDDKGQKVTGGIKTVDMRDPTYRPLKQELQGLDYCKPTRLDLLLDMPPVSYDVQLLHSWNNNDRSLNVFVKEDDKLIFHRHPVAQSTDAIRGKVGYTRGLHVWQITWAMRQRGTHAVVGVATADAPLHSVGYTTLVGNNHESWGWDLGRNRLYHDGKNQPSKTYPAFLEPDETFIVPDSFLVALDMDDGTLSFIVDGQYMGVAFRGLKGKKLYPVVSAVWGHCEIRMRYLNGLDPE	binds
Flag-tagged SSB-1 transgene product (a.a. 2-274), in BMDM of Ssb-1 T/+ mice (other, The printed end of the range may exceed the entry's length; also called full-length SSB-1) DYKDDDDKGQKVTGGIKTVDMRDPTYRPLKQELQGLDYCKPTRLDLLLDMPPVSYDVQLLHSWNNNDRSLNVFVKEDDKLIFHRHPVAQSTDAIRGKVGYTRGLHVWQITWAMRQRGTHAVVGVATADAPLHSVGYTTLVGNNHESWGWDLGRNRLYHDGKNQPSKTYPAFLEPDETFIVPDSFLVALDMDDGTLSFIVDGQYMGVAFRGLKGKKLYPVVSAVWGHCEIRMRYLNGLDPEPLPLMDLCRRSVRLALGKERLGAIPALPLPASLKAYLLYQ	binds
Flag-tagged SSB-2 transgene product (a.a. 3-265), in BMDM of Ssb-2 T/+ mice (other, The printed end of the range may exceed the entry's length; also called full-length SSB-2) DYKDDDDKQTALARGSSSTPTSQALYSDFSPPEGLEELLSAPPPDLVAQRHHGWNPKDCSENIDVKEGGLCFERRPVAQSTDGVRGKRGYSRGLHAWEISWPLEQRGTHAVVGVATALAPLQADHYAALLGSNSESWGWDIGRGKLYHQSKGLEAPQYPAGPQGEQLVVPERLLVVLDMEEGTLGYSIGGTYLGPAFRGLKGRTLYPSVSAVWGQCQVRIRYMGERRVEEPQSLLHLSRLCVRHALGDTRLGQISTLPLPPAMKRYLLYK	binds
Flag-tagged SSB-2ΔSB transgene product (a.a. 2-224, without the SOCS box), in BMDM of Ssb-2ΔSB T/+ mice (other, also called SOCS box-deleted SSB-2) DYKDDDDKGQTALARGSSSTPTSQALYSDFSPPEGLEELLSAPPPDLVAQRHHGWNPKDCSENIDVKEGGLCFERRPVAQSTDGVRGKRGYSRGLHAWEISWPLEQRGTHAVVGVATALAPLQADHYAALLGSNSESWGWDIGRGKLYHQSKGLEAPQYPAGPQGEQLVVPERLLVVLDMEEGTLGYSIGGTYLGPAFRGLKGRTLYPSVSAVWGQCQVRIRYMGERRVEE	binds
